Results reported in US20060141451A1 (ORTHO MCNEIL PHARMACEUTICAL, published 2006).
No end group written: not given here.

Key:
human PAR-4 = biological target: T1, human PAR-4 (human, UniProt Q96RI0 48-385); test: cell-based or functional assay
T1 sequence (looked up): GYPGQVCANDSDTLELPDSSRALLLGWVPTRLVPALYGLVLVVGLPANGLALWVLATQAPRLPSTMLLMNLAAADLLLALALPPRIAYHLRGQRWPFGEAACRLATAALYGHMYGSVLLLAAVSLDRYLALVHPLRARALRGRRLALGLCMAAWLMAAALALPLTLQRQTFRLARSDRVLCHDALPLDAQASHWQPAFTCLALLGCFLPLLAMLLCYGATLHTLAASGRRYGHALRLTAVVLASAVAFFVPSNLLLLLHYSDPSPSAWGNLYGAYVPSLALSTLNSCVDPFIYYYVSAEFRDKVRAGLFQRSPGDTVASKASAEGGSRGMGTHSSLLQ

[1] = biological target: T2, guinea pig proteinase-activated receptor 4 (PAR-4) (guinea pig (Cavia porcellus)); test: cell-based or functional assay
T2 chain: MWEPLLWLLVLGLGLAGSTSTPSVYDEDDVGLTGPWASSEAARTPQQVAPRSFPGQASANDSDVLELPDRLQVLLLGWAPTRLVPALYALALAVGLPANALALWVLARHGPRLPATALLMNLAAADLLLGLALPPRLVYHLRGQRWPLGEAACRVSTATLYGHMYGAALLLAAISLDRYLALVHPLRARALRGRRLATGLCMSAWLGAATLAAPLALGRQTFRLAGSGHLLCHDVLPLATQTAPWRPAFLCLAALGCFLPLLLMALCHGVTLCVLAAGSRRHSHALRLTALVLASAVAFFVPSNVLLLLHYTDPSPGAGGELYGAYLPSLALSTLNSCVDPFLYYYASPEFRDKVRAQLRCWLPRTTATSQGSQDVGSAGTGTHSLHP

For SFPGQA-NH2 [guinea pig PAR-4 activating peptide SFPGQA-NH2], the “aggregation of human gel filtered platelets, EC50” value (human PAR-4) was 140 µM and the “aggregation of guinea pig gel filtered platelets, EC50” value [1] was 174 µM.
